These results are taken from PMC7117775, “CsIVP functions in vasculature development and downy mildew resistance in cucumber”.

The target of series [1] is T1, CsIVP (Irregular Vasculature Patterning, bHLH) (Cucumis sativus, UniProt A0A0A0KHS6 1-223).
T1 sequence: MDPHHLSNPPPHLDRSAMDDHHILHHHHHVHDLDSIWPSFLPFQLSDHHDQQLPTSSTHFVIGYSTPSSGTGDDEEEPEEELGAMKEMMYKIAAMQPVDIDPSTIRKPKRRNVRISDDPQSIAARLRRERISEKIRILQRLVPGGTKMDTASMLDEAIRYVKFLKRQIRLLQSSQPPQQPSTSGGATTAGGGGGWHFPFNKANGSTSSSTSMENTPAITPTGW
Kind of series: EMSA; 80, 120, 160 fmol probe; cold competitor; LightShift Chemiluminescent EMSA Kit (Thermo 20148), manufacturer's instructions; buffer, salt, pH and temperature not stated. The conditions noted are these: protein: recombinant; tags: pET-28a vector (Ni-NTA purified); chain copies: 2; label: 5' biotin on forward strand; blunt.

Series [2] deals with T1, CsIVP (Irregular Vasculature …). Kind of series: EMSA; 80, 120, 160 fmol probe; LightShift Chemiluminescent EMSA Kit (Thermo 20148), manufacturer's instructions; buffer, salt, pH and temperature not stated. The conditions noted are these: protein: recombinant; tags: pET-28a vector (Ni-NTA purified); chain copies: 2; label: 5' biotin on forward strand; blunt. (In general: A gel shift assay detects complexes by their altered migration in electrophoresis.)

B1: CsYAB5 promoter probe (-1626) (dsDNA)
DNA 1: TATAAAATTGTTTTAACCAATTGAGTTATATACATTCAA
DNA 2: TTGAATGTATATAACTCAATTGGTTAAAACAATTTTATA
As for B1, the binding result in series [1] is reported as “binds”.

B2: CsCCR1 promoter probe (-1939) (dsDNA)
DNA 1: CAAAATTGACTTCTTCCACTTGTGCAGTCAAACAGTTC
DNA 2: GAACTGTTTGACTGCACAAGTGGAAGAAGTCAATTTTG
For B2, the binding result in series [2] is “no binding”.

B3: CsBP promoter probe (-333) (dsDNA)
DNA 1: ACTTTAATGGCGCACCCTCAACTGAGATATCTATACCC
DNA 2: GGGTATAGATATCTCAGTTGAGGGTGCGCCATTAAAGT
Take B3: the binding result in series [1] is “binds”.

B4: CsAUX4 promoter probe (-1492) (dsDNA)
DNA 1: AGGGATGGAGGTGAGCACATGGGAGGGCCGCTGCC
DNA 2: GGCAGCGGCCCTCCCATGTGCTCACCTCCATCCCT
Consider B4, for which the binding result in series [1] is on record as “binds”.
